Biological target: TAT-MafA (unphosphorylated, PBS treated) (human, UniProt Q8NHW3 1-353)
Assay: EMSA; unphosphorylated; basal DNA-binding activity; Pierce LightShift chemiluminescent EMSA kit; 200 fmol/ul biotin-DNA, unlabeled competitor 10 pmol/ul, 82.15 ug TAT-MafA; ERK2 or PBS 37 C 1 h, then 20 min binding; buffer, pH and binding temperature not stated
Details: protein: recombinant; TAT PTD (11 aa) and 6xHis, pTAT-2.1 (pET28); chain copies: 2; blunt

Chain of TAT-MafA (unphosphorylated, PBS treated) (Q8NHW3 whole entry): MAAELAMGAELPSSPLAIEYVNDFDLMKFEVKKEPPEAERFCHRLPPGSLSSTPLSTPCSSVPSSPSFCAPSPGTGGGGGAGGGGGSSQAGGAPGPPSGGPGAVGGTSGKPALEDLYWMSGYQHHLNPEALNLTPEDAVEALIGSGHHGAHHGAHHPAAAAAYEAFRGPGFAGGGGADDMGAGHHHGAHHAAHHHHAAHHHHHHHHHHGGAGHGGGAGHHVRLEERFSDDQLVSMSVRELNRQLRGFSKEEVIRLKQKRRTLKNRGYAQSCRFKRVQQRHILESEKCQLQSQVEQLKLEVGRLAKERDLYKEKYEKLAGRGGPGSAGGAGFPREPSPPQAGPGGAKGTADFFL

B1: insulin promoter -139 to -104 (C1 box) (dsDNA)
DNA 1: ATGGTCCGGAAATTGCAGCCTCAGCCCCCAGCCATC
DNA 2: GATGGCTGGGGGCTGAGGCTGCAATTTCCGGACCAT
B1: binds.
